Laboratory results from PMC12118636 (Science Advances, 2025).

Biological target: Human calmodulin (human, UniProt P0DP23 1-149)
Experiment: ITC

B1: Human NaV1.9 C-tail (residues 1618 to 1766) (domain or fragment)
chain: LGEDDFDIFYEVWEKFDPEATQFIKYSALSDFADALPEPLRVAKPNKYQFLVMDLPMVSEDRLHCMDILFAFTARVLGGSDGLDSMKAMMEEKFMEANPLKKLYEPIVTTTKRKEEERGAAIIQKAFRKYMMKVTKGDQGDQNDLENGP
Kd: ~214 µM
